In patent US20260139007A1, “EPHA4 ANTAGONISTS AND USES THEREOF” (SANFORD BURNHAM PREBYS MEDICAL DISCOVERY INSTITUTE, priority 2023, published 2026):

Assays:
[1] = target: EphA4 Fc (human EphA4 Fc, #CJ75, Novoprotein, or mouse EphA4 Fc, #641-A4, R&D Systems/BioTechne) (human or mouse) (UniProt P54764); experiment: competition ELISA, inhibition of ephrin-A5 AP binding to immobilized EphA4 Fc (Table 2, repeats Table 1)
[2] = target: EphA4 Fc (human EphA4 Fc, #CJ75, Novoprotein, or mouse EphA4 Fc, #641-A4, R&D Systems/BioTechne) (human or mouse) (UniProt P54764); experiment: competition ELISA, inhibition of ephrin-A5 AP binding to immobilized EphA4 Fc

Chain of EphA4 Fc (human EphA4 Fc, #CJ75, Novoprotein, or mouse EphA4 Fc, #641-A4, R&D Systems/BioTechne) (human or mouse) (P54764 20-547): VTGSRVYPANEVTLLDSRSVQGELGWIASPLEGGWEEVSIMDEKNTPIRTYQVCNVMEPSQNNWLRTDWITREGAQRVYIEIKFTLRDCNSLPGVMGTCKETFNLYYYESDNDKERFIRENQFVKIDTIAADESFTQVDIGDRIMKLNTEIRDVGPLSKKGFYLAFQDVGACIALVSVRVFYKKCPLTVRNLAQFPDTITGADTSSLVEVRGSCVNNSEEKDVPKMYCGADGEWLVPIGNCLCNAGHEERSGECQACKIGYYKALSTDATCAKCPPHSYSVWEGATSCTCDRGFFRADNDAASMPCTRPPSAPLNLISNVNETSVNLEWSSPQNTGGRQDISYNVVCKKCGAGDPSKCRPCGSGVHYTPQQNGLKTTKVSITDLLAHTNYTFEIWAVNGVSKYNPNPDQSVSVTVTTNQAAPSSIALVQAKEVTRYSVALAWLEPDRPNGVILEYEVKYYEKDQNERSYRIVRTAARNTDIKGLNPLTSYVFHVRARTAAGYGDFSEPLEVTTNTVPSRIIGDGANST

IC50 [1]: 20 nM | IC50 [2]: 20 nM
B1: APY-d3-PEG4 (peptide)
peptide: XPYCVYRXSWSCXXX
modifications: β-alanine at 1 and 8; disulfide bond Cys4-Cys12 (Cyc (4,12)); three 6-aminohexanoic acid (Ahx) residues and propargyl-glycine (Pra) after Cys12; 30 kDa methoxy-PEG on Pra through a triazole (click chemistry); free C-terminal acid (-OH)
